US20230331827A1, “POTASSIUM CHANNEL INHIBITORS” (priority 2017, published 2023)
Residue numbers refer to the chain shown, from its start. Names and notes keep the numbering of the source.

B1: KB_A12_HsTx1 R14A (antibody, V domains shown)
VH: EVQLVESGGGLVRPGGSLRLSCAASGFTFSSYAMSWVRQAPGKGLEWVSAISGSGGSTYYADSVKGRFTISRDNTKNSLYLQMTSLRADDTAFYYCVKDFGPGYGTGWFDYWGPGTLVTVSS
VL: NWYQQLPGKAPKLLIYAAGRASCRTPKDCADPCAKETGCPYGKCMNRKCKCNRCANSGVSDRFSAAKSGTSASLAINGLRSEDEADYYCAAWDDSLNGYVFGTGTKLTVLG
B2: KB_B02 Fab (Fab, V domains shown)
VH: B1 VH
VL: AVNWYQQLPGKAPKLLIYAAVGCPRILMRCKQDSDCLAGCVCGPNGFCGTGSGIPERFSGSKSGNTASLTISGLQAEDEGDYYCAAWDDSLSGPVFGGGTKLTVLG
B3: KB_A10 Fab (Fab, V domains shown)
VH: B1 VH
VL: B2 VL with V21G, T50S, G51N, I54V, E56D, A76S, G80A, P94V, K101Q
B4: KB_A12_B-gal_G05 (scFv, V domains shown)
VH: B1 VH
VL: AVNWYQQLPGKAPKLLIYAAGRCLDTVNLRRRCKQDSDCLAGCVCGPNGFCGANSGVSDRFSAAKSGTSASLAINGLRSEDEADYYCAAWDDSLNGYVFGTGTKLTVLG
B5: KB_A12_B-gal_E05 (scFv, V domains shown)
VH: B1 VH
VL: B4 VL with L24R, D25E, V27S, N28S, R32P
B6: KB_B01 Fab (Fab, V domains shown)
VH: B1 VH
VL: AVNWYQQLPGKAPKLLIYAAAGCPRILMRCKQDSDCLAGCVCGPNGFCGTRSGVSDRFSGSKSGTSASLAISGLRSEDEADYYCAAWDDSLRAYVFGTGTKLTVLG
B7: KB_C10 Fab (Fab, V domains shown)
VH: B1 VH
VL: AVNWYQQLPGKAPKLLIYAAGPCPRILMRCKQDSDCLAGCVCGPNGFCGADSGVSDRFSGSKSGTSASLAITGLQAEDEGDYYCAAWDDSLNGLVFGGGTKVTVLG
B8: KB_A11 Fab (Fab, V domains shown)
VH: B1 VH
VL: YLNWYQQKPGKAPKLLIYAAEICPRILMRCKQDSDCLAGCVCGPNGFCGPSSGIPARFSGSGYGTDFTLTINNIESEDAAYYFCLQHDNFPYTFGQGTKVEIKR
B9: KB_C08 Fab (Fab, V domains shown)
VH: B1 VH
VL: B6 VL with G22V, V54I, S55P, D56E, S68F, R92S, A93G, Y94V, T98G
B10: KB_C09 Fab (Fab, V domains shown)
VH: B1 VH
VL: AVNWYQQLPGKAPKLLIYAAGRCPRILMRCKQDSDCLAGCVCGPNGFCGGGSGVPDRFSGSIDSSSNSASLTISGLRAEDEADYYCQSYDSSNHWVFGGGTKLTVLG
B11: KB_A02 Fab (Fab, V domains shown)
VH: B1 VH
VL: B10 VL with G21A, R22K, G51A, P55S, R77K, A78P, A82G, H94R, L103V
B12: KB_A09 Fab (Fab, V domains shown)
VH: B1 VH
VL: B10 VL with G21E, G50T, G51P, S64T, S65F, R77K, A78T, N93H
B13: KB_A12_B-gal_F02 (scFv, V domains shown)
VH: B1 VH
VL: B4 VL with L24R, D25T, V27S, N28T, L29I
B14: KB_C07 Fab (Fab, V domains shown)
VH: B1 VH
VL: B6 VL with A21V, T50S, R51A, A86S, A93G, L102V
B15: KB_A12_B-gal_E04 (scFv, V domains shown)
VH: B1 VH
VL: B4 VL with D25A, V27T, N28S, L29I, R32P
B16: KB_A07 Fab (Fab, V domains shown)
VH: B1 VH
VL: YLNWYQQKPGKAPKLLIYAAGVCPRILMRCKQDSDCLAGCVCGPNGFCGSRSGVPSRFSGSGSGTDFTLTISSLQPEDFATYYCQQGASPPYTFGQGTKVEIKR
B17: KB_A06 Fab (Fab, V domains shown)
VH: B1 VH
VL: AVNWYQQLPGKAPKLLIYAAVRCPRILMRCKQDSDCLAGCVCGPNGFCGTPSGIPERFSGSIDRSTNSASLTISGLKTEDEADYYCQSYDSSNLNWVFGGGTKLTVLG
B18: KB_A12_B-gal_H03 (scFv, V domains shown)
VH: B1 VH
VL: B4 VL with L24N, D25Q, V27M, N28S, L29I, R32P
B19: KB_A05 Fab (Fab, V domains shown)
VH: EVQLVESGGGLVRPGGSLRLSCAASGFTFSSYAMSWVRQAPGKGLEWVSAISGSGGSTYYADSVKGRFTISRDNTKNSLYLQMTSLRADDTAFYYCVDFGPGYGTGWFDYWGPGTLVTVSS
VL: AVNWYQQLPGKAPKLLIYAADKCPRILMRCKQDSDCLAGCVCGPNGFCGGGSGIPERFSGSKSGTSASLAISGLRSEDEADYYCATWDDNLNGVVFGGGTKLTVLG
B20: KB_A12 Fab (Fab, V domains shown)
VH: B19 VH
VL: B6 VL with A21G, G22R, T50A, R51N, G60A, S61A, S72N, R92N, A93G

Assays:
human Kv1.1 (human) = human Kv1.1 (human) (UniProt Q09470); assay: cell-based or functional assay
Sequence of human Kv1.1 (human) (Q09470 whole entry): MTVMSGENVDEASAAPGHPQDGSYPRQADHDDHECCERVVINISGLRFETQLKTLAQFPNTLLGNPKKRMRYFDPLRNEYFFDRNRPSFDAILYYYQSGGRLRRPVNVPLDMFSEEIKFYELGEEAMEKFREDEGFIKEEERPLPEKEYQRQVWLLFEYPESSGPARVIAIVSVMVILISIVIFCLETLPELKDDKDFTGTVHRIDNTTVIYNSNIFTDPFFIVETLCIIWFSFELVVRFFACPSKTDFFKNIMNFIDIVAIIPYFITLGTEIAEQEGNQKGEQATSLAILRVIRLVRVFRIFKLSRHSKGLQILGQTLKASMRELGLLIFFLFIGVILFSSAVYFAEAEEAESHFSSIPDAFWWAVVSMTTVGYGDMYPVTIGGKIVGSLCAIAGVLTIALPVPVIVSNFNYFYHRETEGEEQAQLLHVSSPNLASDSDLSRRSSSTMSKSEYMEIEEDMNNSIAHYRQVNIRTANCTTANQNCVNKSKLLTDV

human Kv1.3 (human) = human Kv1.3 (human) (UniProt P22001); assay: cell-based or functional assay
Sequence of human Kv1.3 (human) (P22001 whole entry): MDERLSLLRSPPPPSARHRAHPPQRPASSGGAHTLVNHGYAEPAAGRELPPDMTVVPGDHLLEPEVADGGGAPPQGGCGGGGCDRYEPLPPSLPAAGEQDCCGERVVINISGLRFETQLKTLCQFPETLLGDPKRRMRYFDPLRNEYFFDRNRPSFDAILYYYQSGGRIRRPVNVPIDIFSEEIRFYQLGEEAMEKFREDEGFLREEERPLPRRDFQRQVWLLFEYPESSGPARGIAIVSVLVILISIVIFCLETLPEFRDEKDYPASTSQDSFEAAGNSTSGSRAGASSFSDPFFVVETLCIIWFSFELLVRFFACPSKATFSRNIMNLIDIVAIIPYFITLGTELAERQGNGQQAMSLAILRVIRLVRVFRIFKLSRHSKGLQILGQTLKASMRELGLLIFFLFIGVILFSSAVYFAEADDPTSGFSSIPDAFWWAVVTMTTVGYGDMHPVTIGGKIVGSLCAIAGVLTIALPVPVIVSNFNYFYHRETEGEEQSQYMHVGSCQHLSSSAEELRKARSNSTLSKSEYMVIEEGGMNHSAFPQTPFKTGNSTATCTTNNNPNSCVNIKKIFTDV

trypsin [1] = assay: TRF, 2.4 ug/mL Fab on trypsin
trypsin [2] = assay: TRF, 0.6 ug/mL Fab on trypsin
trypsin [3] = assay: TRF, 10 ug/mL Fab on trypsin
β-galactosidase = assay: phage TRF on β-galactosidase
Sequence of β-galactosidase (P00722 2-1024): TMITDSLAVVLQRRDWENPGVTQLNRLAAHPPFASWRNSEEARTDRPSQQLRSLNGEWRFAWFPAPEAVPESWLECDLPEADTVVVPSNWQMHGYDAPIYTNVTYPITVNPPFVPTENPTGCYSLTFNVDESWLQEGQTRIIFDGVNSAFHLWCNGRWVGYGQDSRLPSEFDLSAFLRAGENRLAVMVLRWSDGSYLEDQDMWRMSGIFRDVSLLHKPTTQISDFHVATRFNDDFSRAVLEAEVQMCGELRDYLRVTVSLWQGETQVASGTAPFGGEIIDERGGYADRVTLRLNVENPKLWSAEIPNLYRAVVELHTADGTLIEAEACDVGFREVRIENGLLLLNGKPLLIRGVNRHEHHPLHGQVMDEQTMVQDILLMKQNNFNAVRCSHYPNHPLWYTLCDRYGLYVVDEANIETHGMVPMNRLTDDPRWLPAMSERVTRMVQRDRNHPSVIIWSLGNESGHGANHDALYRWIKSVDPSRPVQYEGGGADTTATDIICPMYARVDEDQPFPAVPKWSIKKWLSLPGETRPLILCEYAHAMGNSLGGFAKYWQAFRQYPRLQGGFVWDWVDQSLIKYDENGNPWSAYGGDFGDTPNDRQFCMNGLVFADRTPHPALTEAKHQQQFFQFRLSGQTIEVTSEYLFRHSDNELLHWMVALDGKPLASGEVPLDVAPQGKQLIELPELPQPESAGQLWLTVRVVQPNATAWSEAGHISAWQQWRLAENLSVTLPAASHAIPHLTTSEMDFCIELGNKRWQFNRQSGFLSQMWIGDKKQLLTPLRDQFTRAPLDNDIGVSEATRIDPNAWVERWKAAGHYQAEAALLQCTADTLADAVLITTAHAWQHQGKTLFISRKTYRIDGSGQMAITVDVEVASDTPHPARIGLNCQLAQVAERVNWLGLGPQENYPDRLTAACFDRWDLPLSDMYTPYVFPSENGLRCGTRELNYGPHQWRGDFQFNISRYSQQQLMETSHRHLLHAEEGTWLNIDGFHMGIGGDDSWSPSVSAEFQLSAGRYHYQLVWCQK

| Binder | Kv1.1 IC50, QPatch patch clamp (human Kv1.1 (human)) | Fold difference (Kv1.1 IC50 against Kv1.3 IC50) (human Kv1.3 (human)) | Kv1.3 IC50, QPatch patch clamp (human Kv1.3 (human)) | TRF signal (trypsin [1]) | TRF signal (trypsin [2]) | TRF signal (trypsin [3]) | TRF signal (β-galactosidase) |
| --- | --- | --- | --- | --- | --- | --- | --- |
| B1 | 2990 nM | > 3500 fold | 0.9 nM |  |  |  |  |
| B2 |  |  |  | 15900 | 2340 | 56600 |  |
| B3 |  |  |  | 71900 | 14600 | 68700 |  |
| B4 |  |  |  |  |  |  | 529000 |
| B5 |  |  |  |  |  |  | 312000 |
| B6 |  |  |  | 153000 | 54800 | 257000 |  |
| B7 |  |  |  | 146000 | 41700 | 238000 |  |
| B8 |  |  |  | 141000 | 48900 | 212000 |  |
| B9 |  |  |  | 131000 | 51100 | 183000 |  |
| B10 |  |  |  | 205000 | 46800 | 289000 |  |
| B11 |  |  |  | 221000 | 93800 | 255000 |  |
| B12 |  |  |  | 84100 | 21000 | 161000 |  |
| B13 |  |  |  |  |  |  | 476000 |
| B14 |  |  |  | 247000 | 153000 | 276000 |  |
| B15 |  |  |  |  |  |  | 523000 |
| B16 |  |  |  | 201000 | 108000 | 226000 |  |
| B17 |  |  |  | 212000 | 108000 | 242000 |  |
| B18 |  |  |  |  |  |  | 518000 |
| B19 |  |  |  | 65400 | 46700 | 218000 |  |
| B20 |  |  |  | 222000 | 102000 | 253000 |  |
